The values below come from publication PMC9253567, “The Role of ZAP and TRIM25 RNA Binding in Restricting Viral Translation” (Frontiers in Cellular and Infection Microbiology, 2022).

Assay [1] deals with T1, myc-tagged TRIM25 WT (tripartite motif-containing protein 25) (UniProt Q14258 1-630). As to the kind of experiment: cell-based or functional assay.
In assay [2] the target is T1, myc-tagged TRIM25 WT (tripartite …). The experiment in a line: co-IP; myc IP (anti-myc beads) of myc-TRIM25 WT from lysates of ZAP KO 293T cells co-transfected with FLAG-ZAPS or FLAG-ZAPL WT or mutants; FLAG-ZAP detected by immunoblot; FLAG IP buffer (100 mM Tris-HCl 8.0, 150 mM NaCl, 5 mM EDTA, 1 mM DTT, 5% glycerol, 0.1% NP-40), 4°C, 45 min; FLAG IP band divided by myc IP band (ImageJ). To be noted: partners not purified. For orientation: A western blot detects proteins with antibodies after separation by electrophoresis.

T1 sequence (Q14258 whole entry): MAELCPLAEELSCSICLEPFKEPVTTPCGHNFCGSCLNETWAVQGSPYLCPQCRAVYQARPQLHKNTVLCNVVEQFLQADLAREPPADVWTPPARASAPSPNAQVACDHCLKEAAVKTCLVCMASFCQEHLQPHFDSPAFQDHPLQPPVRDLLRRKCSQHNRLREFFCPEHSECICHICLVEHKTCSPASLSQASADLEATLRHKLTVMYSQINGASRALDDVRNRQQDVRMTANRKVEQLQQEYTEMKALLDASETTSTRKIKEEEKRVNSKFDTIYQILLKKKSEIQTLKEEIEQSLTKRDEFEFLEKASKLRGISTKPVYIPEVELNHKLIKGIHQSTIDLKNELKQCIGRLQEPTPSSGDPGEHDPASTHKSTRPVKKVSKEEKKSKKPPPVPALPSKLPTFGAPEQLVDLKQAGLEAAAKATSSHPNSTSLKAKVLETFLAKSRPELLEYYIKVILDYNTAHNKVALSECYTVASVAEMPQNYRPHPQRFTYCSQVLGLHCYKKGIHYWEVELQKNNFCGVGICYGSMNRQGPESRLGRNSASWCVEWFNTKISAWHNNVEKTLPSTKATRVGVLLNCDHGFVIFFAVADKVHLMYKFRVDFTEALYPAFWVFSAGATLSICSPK

B1: FLAG-tagged ZAPL C88R (ZnF 2 mutant) (natural protein, human, UniProt Q7Z2W4-1 1-902, looked up)
chain: MADPEVCCFITKILCAHGGRMALDALLQEIALSEPQLCEVLQVAGPDRFVVLETGGEAGITRSVVATTRARVCRRKYCQRPCDNLHLRKLNLLGRCNYSQSERNLCKYSHEVLSEENFKVLKNHELSGLNKEELAVLLLQSDPFFMPEICKSYKGEGRQQICNQQPPCSRLHICDHFTRGNCRFPNCLRSHNLMDRKVLAIMREHGLNPDVVQNIQDICNSKHMQKNPPGPRAPSSHRRNMAYRARSKSRDRFFQGSQEFLASASASAERSCTPSPDQISHRASLEDAPVDDLTRKFTYLGSQDRARPPSGSSKATDLGGTSQAGTSQRFLENGSQEDLLHGNPGSTYLASNSTSAPNWKSLTSWTNDQGARRKTVFSPTLPAARSSLGSLQTPEAVTTRKGTGLLSSDYRIINGKSGTQDIQPGPLFNNNADGVATDITSTRSLNYKSTSSGHREISSPRIQDAGPASRDVQATGRIADDADPRVALVNDSLSDVTSTTSSRVDDHDSEEICLDHLCKGCPLNGSCSKVHFHLPYRWQMLIGKTWTDFEHMETIEKGYCNPGIHLCSVGSYTINFRVMSCDSFPIRRLSTPSSVTKPANSVFTTKWIWYWKNESGTWIQYGEEKDKRKNSNVDSSYLESLYQSCPRGVVPFQAGSRNYELSFQGMIQTNIASKTQKDVIRRPTFVPQWYVQQMKRGPDHQPAKTSSVSLTATFRPQEDFCFLSSKKYKLSEIHHLHPEYVRVSEHFKASMKNFKIEKIKKIENSELLDKFTWKKSQMKEEGKLLFYATSRAYVESICSNNFDSFLHETHENKYGKGIYFAKDAIYSHKNCPYDAKNVVMFVAQVLVGKFTEGNITYTSPPPQFDSCVDTRSNPSVFVIFQKDQVYPQYVIEYTEDKACVIS
notes: zinc finger antiviral protein (ZAP), long isoform ZAPL, cloned from pTRIP-TagRFP-hZAPL; source: ZAP KO 293T cells, transfected (pcDNA3.1-3XFLAG), in lysate; not shown: 3XFLAG, N-terminal, kept
Turning to B1, the “JEV translation inhibition: fold inhibition of Renilla luciferase from a replication-defective JEV replicon, relative to empty plasmid, ZAP KO 293T cells, 4 h after replicon transfection” value in assay [1] is 5.19 fold inhibition relative to empty plasmid transfection. Also, the “ZAP-TRIM25 interaction (co-IP, FLAG-ZAP band over myc-TRIM25 band, ImageJ)” value in assay [2] turned out to be 1.13.

B2: FLAG-tagged ZAPL E148A/K151A/R170A (natural protein, human, UniProt Q7Z2W4-1 1-902, looked up)
chain: MADPEVCCFITKILCAHGGRMALDALLQEIALSEPQLCEVLQVAGPDRFVVLETGGEAGITRSVVATTRARVCRRKYCQRPCDNLHLCKLNLLGRCNYSQSERNLCKYSHEVLSEENFKVLKNHELSGLNKEELAVLLLQSDPFFMPAICASYKGEGRQQICNQQPPCSALHICDHFTRGNCRFPNCLRSHNLMDRKVLAIMREHGLNPDVVQNIQDICNSKHMQKNPPGPRAPSSHRRNMAYRARSKSRDRFFQGSQEFLASASASAERSCTPSPDQISHRASLEDAPVDDLTRKFTYLGSQDRARPPSGSSKATDLGGTSQAGTSQRFLENGSQEDLLHGNPGSTYLASNSTSAPNWKSLTSWTNDQGARRKTVFSPTLPAARSSLGSLQTPEAVTTRKGTGLLSSDYRIINGKSGTQDIQPGPLFNNNADGVATDITSTRSLNYKSTSSGHREISSPRIQDAGPASRDVQATGRIADDADPRVALVNDSLSDVTSTTSSRVDDHDSEEICLDHLCKGCPLNGSCSKVHFHLPYRWQMLIGKTWTDFEHMETIEKGYCNPGIHLCSVGSYTINFRVMSCDSFPIRRLSTPSSVTKPANSVFTTKWIWYWKNESGTWIQYGEEKDKRKNSNVDSSYLESLYQSCPRGVVPFQAGSRNYELSFQGMIQTNIASKTQKDVIRRPTFVPQWYVQQMKRGPDHQPAKTSSVSLTATFRPQEDFCFLSSKKYKLSEIHHLHPEYVRVSEHFKASMKNFKIEKIKKIENSELLDKFTWKKSQMKEEGKLLFYATSRAYVESICSNNFDSFLHETHENKYGKGIYFAKDAIYSHKNCPYDAKNVVMFVAQVLVGKFTEGNITYTSPPPQFDSCVDTRSNPSVFVIFQKDQVYPQYVIEYTEDKACVIS
notes: zinc finger antiviral protein (ZAP), long isoform ZAPL, cloned from pTRIP-TagRFP-hZAPL; also called ZAPL EKR; EKR; source: ZAP KO 293T cells, transfected (pcDNA3.1-3XFLAG), in lysate; not shown: 3XFLAG, N-terminal, kept
Regarding B2, the “ZAP-TRIM25 interaction (co-IP, FLAG-ZAP band over myc-TRIM25 band, ImageJ)” value in assay [2] amounted to 0.196.

B3: FLAG-tagged ZAPL H176A/F184A/R189A (natural protein, human, UniProt Q7Z2W4-1 1-902, looked up)
chain: MADPEVCCFITKILCAHGGRMALDALLQEIALSEPQLCEVLQVAGPDRFVVLETGGEAGITRSVVATTRARVCRRKYCQRPCDNLHLCKLNLLGRCNYSQSERNLCKYSHEVLSEENFKVLKNHELSGLNKEELAVLLLQSDPFFMPEICKSYKGEGRQQICNQQPPCSRLHICDAFTRGNCRAPNCLASHNLMDRKVLAIMREHGLNPDVVQNIQDICNSKHMQKNPPGPRAPSSHRRNMAYRARSKSRDRFFQGSQEFLASASASAERSCTPSPDQISHRASLEDAPVDDLTRKFTYLGSQDRARPPSGSSKATDLGGTSQAGTSQRFLENGSQEDLLHGNPGSTYLASNSTSAPNWKSLTSWTNDQGARRKTVFSPTLPAARSSLGSLQTPEAVTTRKGTGLLSSDYRIINGKSGTQDIQPGPLFNNNADGVATDITSTRSLNYKSTSSGHREISSPRIQDAGPASRDVQATGRIADDADPRVALVNDSLSDVTSTTSSRVDDHDSEEICLDHLCKGCPLNGSCSKVHFHLPYRWQMLIGKTWTDFEHMETIEKGYCNPGIHLCSVGSYTINFRVMSCDSFPIRRLSTPSSVTKPANSVFTTKWIWYWKNESGTWIQYGEEKDKRKNSNVDSSYLESLYQSCPRGVVPFQAGSRNYELSFQGMIQTNIASKTQKDVIRRPTFVPQWYVQQMKRGPDHQPAKTSSVSLTATFRPQEDFCFLSSKKYKLSEIHHLHPEYVRVSEHFKASMKNFKIEKIKKIENSELLDKFTWKKSQMKEEGKLLFYATSRAYVESICSNNFDSFLHETHENKYGKGIYFAKDAIYSHKNCPYDAKNVVMFVAQVLVGKFTEGNITYTSPPPQFDSCVDTRSNPSVFVIFQKDQVYPQYVIEYTEDKACVIS
notes: zinc finger antiviral protein (ZAP), long isoform ZAPL, cloned from pTRIP-TagRFP-hZAPL; also called ZAPL HFR; HFR; source: ZAP KO 293T cells, transfected (pcDNA3.1-3XFLAG), in lysate; not shown: 3XFLAG, N-terminal, kept
B3: the “ZAP-TRIM25 interaction (co-IP, FLAG-ZAP band over myc-TRIM25 band, ImageJ)” value in assay [2] came out at 0.03.

B4: FLAG-tagged ZAPL K107A/Y108A (natural protein, human, UniProt Q7Z2W4-1 1-902, looked up)
chain: MADPEVCCFITKILCAHGGRMALDALLQEIALSEPQLCEVLQVAGPDRFVVLETGGEAGITRSVVATTRARVCRRKYCQRPCDNLHLCKLNLLGRCNYSQSERNLCAASHEVLSEENFKVLKNHELSGLNKEELAVLLLQSDPFFMPEICKSYKGEGRQQICNQQPPCSRLHICDHFTRGNCRFPNCLRSHNLMDRKVLAIMREHGLNPDVVQNIQDICNSKHMQKNPPGPRAPSSHRRNMAYRARSKSRDRFFQGSQEFLASASASAERSCTPSPDQISHRASLEDAPVDDLTRKFTYLGSQDRARPPSGSSKATDLGGTSQAGTSQRFLENGSQEDLLHGNPGSTYLASNSTSAPNWKSLTSWTNDQGARRKTVFSPTLPAARSSLGSLQTPEAVTTRKGTGLLSSDYRIINGKSGTQDIQPGPLFNNNADGVATDITSTRSLNYKSTSSGHREISSPRIQDAGPASRDVQATGRIADDADPRVALVNDSLSDVTSTTSSRVDDHDSEEICLDHLCKGCPLNGSCSKVHFHLPYRWQMLIGKTWTDFEHMETIEKGYCNPGIHLCSVGSYTINFRVMSCDSFPIRRLSTPSSVTKPANSVFTTKWIWYWKNESGTWIQYGEEKDKRKNSNVDSSYLESLYQSCPRGVVPFQAGSRNYELSFQGMIQTNIASKTQKDVIRRPTFVPQWYVQQMKRGPDHQPAKTSSVSLTATFRPQEDFCFLSSKKYKLSEIHHLHPEYVRVSEHFKASMKNFKIEKIKKIENSELLDKFTWKKSQMKEEGKLLFYATSRAYVESICSNNFDSFLHETHENKYGKGIYFAKDAIYSHKNCPYDAKNVVMFVAQVLVGKFTEGNITYTSPPPQFDSCVDTRSNPSVFVIFQKDQVYPQYVIEYTEDKACVIS
notes: zinc finger antiviral protein (ZAP), long isoform ZAPL, cloned from pTRIP-TagRFP-hZAPL; also called ZAPL KY; KY; source: ZAP KO 293T cells, transfected (pcDNA3.1-3XFLAG), in lysate; not shown: 3XFLAG, N-terminal, kept
Turning to B4, in assay [2], the “ZAP-TRIM25 interaction (co-IP, FLAG-ZAP band over myc-TRIM25 band, ImageJ)” value is 0.086.

B5: FLAG-tagged ZAPL V72A/Y108A/F144A (natural protein, human, UniProt Q7Z2W4-1 1-902, looked up)
chain: MADPEVCCFITKILCAHGGRMALDALLQEIALSEPQLCEVLQVAGPDRFVVLETGGEAGITRSVVATTRARACRRKYCQRPCDNLHLCKLNLLGRCNYSQSERNLCKASHEVLSEENFKVLKNHELSGLNKEELAVLLLQSDPAFMPEICKSYKGEGRQQICNQQPPCSRLHICDHFTRGNCRFPNCLRSHNLMDRKVLAIMREHGLNPDVVQNIQDICNSKHMQKNPPGPRAPSSHRRNMAYRARSKSRDRFFQGSQEFLASASASAERSCTPSPDQISHRASLEDAPVDDLTRKFTYLGSQDRARPPSGSSKATDLGGTSQAGTSQRFLENGSQEDLLHGNPGSTYLASNSTSAPNWKSLTSWTNDQGARRKTVFSPTLPAARSSLGSLQTPEAVTTRKGTGLLSSDYRIINGKSGTQDIQPGPLFNNNADGVATDITSTRSLNYKSTSSGHREISSPRIQDAGPASRDVQATGRIADDADPRVALVNDSLSDVTSTTSSRVDDHDSEEICLDHLCKGCPLNGSCSKVHFHLPYRWQMLIGKTWTDFEHMETIEKGYCNPGIHLCSVGSYTINFRVMSCDSFPIRRLSTPSSVTKPANSVFTTKWIWYWKNESGTWIQYGEEKDKRKNSNVDSSYLESLYQSCPRGVVPFQAGSRNYELSFQGMIQTNIASKTQKDVIRRPTFVPQWYVQQMKRGPDHQPAKTSSVSLTATFRPQEDFCFLSSKKYKLSEIHHLHPEYVRVSEHFKASMKNFKIEKIKKIENSELLDKFTWKKSQMKEEGKLLFYATSRAYVESICSNNFDSFLHETHENKYGKGIYFAKDAIYSHKNCPYDAKNVVMFVAQVLVGKFTEGNITYTSPPPQFDSCVDTRSNPSVFVIFQKDQVYPQYVIEYTEDKACVIS
notes: zinc finger antiviral protein (ZAP), long isoform ZAPL, cloned from pTRIP-TagRFP-hZAPL; also called ZAPL VYF; VYF; source: ZAP KO 293T cells, transfected (pcDNA3.1-3XFLAG), in lysate; not shown: 3XFLAG, N-terminal, kept
Regarding B5, the “ZAP-TRIM25 interaction (co-IP, FLAG-ZAP band over myc-TRIM25 band, ImageJ)” value in assay [2] came out at 0.574.

B6: FLAG-tagged ZAPS H191R (ZnF 4 mutant) (natural protein, human, UniProt Q7Z2W4-2 1-699, looked up)
chain: MADPEVCCFITKILCAHGGRMALDALLQEIALSEPQLCEVLQVAGPDRFVVLETGGEAGITRSVVATTRARVCRRKYCQRPCDNLHLCKLNLLGRCNYSQSERNLCKYSHEVLSEENFKVLKNHELSGLNKEELAVLLLQSDPFFMPEICKSYKGEGRQQICNQQPPCSRLHICDHFTRGNCRFPNCLRSRNLMDRKVLAIMREHGLNPDVVQNIQDICNSKHMQKNPPGPRAPSSHRRNMAYRARSKSRDRFFQGSQEFLASASASAERSCTPSPDQISHRASLEDAPVDDLTRKFTYLGSQDRARPPSGSSKATDLGGTSQAGTSQRFLENGSQEDLLHGNPGSTYLASNSTSAPNWKSLTSWTNDQGARRKTVFSPTLPAARSSLGSLQTPEAVTTRKGTGLLSSDYRIINGKSGTQDIQPGPLFNNNADGVATDITSTRSLNYKSTSSGHREISSPRIQDAGPASRDVQATGRIADDADPRVALVNDSLSDVTSTTSSRVDDHDSEEICLDHLCKGCPLNGSCSKVHFHLPYRWQMLIGKTWTDFEHMETIEKGYCNPGIHLCSVGSYTINFRVMSCDSFPIRRLSTPSSVTKPANSVFTTKWIWYWKNESGTWIQYGEEKDKRKNSNVDSSYLESLYQSCPRGVVPFQAGSRNYELSFQGMIQTNIASKTQKDVIRRPTFVPQWYVQQMKRGPE
notes: zinc finger antiviral protein (ZAP), short isoform ZAPS, cloned from pTRIP-TagRFP-hZAPS; source: ZAP KO 293T cells, transfected (pcDNA3.1-3XFLAG), in lysate; not shown: 3XFLAG, N-terminal, kept
Consider B6, for which, in assay [1], the “JEV translation inhibition: fold inhibition of Renilla luciferase from a replication-defective JEV replicon, relative to empty plasmid, ZAP KO 293T cells, 4 h after replicon transfection” value was 2.18 fold inhibition relative to empty plasmid transfection. Further, the “ZAP-TRIM25 interaction (co-IP, FLAG-ZAP band over myc-TRIM25 band, ImageJ)” value in assay [2] stood at 1.05.
